Patent publication US8067220B2, “Alternative crystal form of monoacylglycerol lipase (MGLL)” (Janssen Pharmaceutica N.V., priority 2008, dated 2011)
Changes are numbered by the printed parent chain. In names and notes the source's numbering stands.

B1: mut-MGLL 1-303, L171Q: human MGLL 1-303 with cap-domain mutation L171Q (protein, UniProt Q99685 1-303, looked up, variant L171Q)
Monoglyceride lipase: MPEESSPRRTPQSIPYQDLPHLVNADGQYLFCRYWKPTGTPKALIFVSHGAGEHSGRYEELARMLMGLDLLVFAHDHVGHGQSEGERMVVSDFHVFVRDVLQHVDSMQKDYPGLPVFLLGHSMGGAIAILTAAERPGHFAGMVLISPLVLANPESATTFKVLAAKVLNLVQPNLSLGPIDSSVLSRNKTEVDIYNSDPLICRAGLKVCFGIQLLNAVSRVERALPKLTVPFLLLQGSADRLCDSKGAYLLMELAKSQDKTLKIYEGAYHVLHKELPEVTNSVFHEINMWVSQRTATAGTASPP
B2: mut-MGLL 1-303, L171Q, L174Q: human MGLL 1-303 with cap-domain mutations L171Q, L174Q (protein, UniProt Q99685 1-303, looked up, variant L171Q L174Q)
Monoglyceride lipase: B1 Monoglyceride lipase with L174Q
B3: mut-MGLL 1-303, L167Q, L171Q: human MGLL 1-303 with cap-domain mutations L167Q, L171Q (protein, UniProt Q99685 1-303, looked up, variant L167Q L171Q)
Monoglyceride lipase: B1 Monoglyceride lipase with L167Q
B4: mut-MGLL. 1-303, L167Q, L174Q: human MGLL 1-303 with cap-domain mutations L167Q, L174Q (protein, UniProt Q99685 1-303, looked up, variant L167Q L174Q)
Monoglyceride lipase: B1 Monoglyceride lipase with L167Q, Q171L, L174Q
B5: mut-MGLL 9-303, L169S, L176S: N-terminally truncated human MGLL 9-303 with L169S, L176S (protein, UniProt Q99685 9-303, looked up, variant L169S L176S)
chain: RTPQSIPYQDLPHLVNADGQYLFCRYWKPTGTPKALIFVSHGAGEHSGRYEELARMLMGLDLLVFAHDHVGHGQSEGERMVVSDFHVFVRDVLQHVDSMQKDYPGLPVFLLGHSMGGAIAILTAAERPGHFAGMVLISPLVLANPESATTFKVLAAKVLNSVLPNLSSGPIDSSVLSRNKTEVDIYNSDPLICRAGLKVCFGIQLLNAVSRVERALPKLTVPFLLLQGSADRLCDSKGAYLLMELAKSQDKTLKIYEGAYHVLHKELPEVTNSVFHEINMWVSQRTATAGTASPP
B6: mut-MGLL 1-303, L169S, L176S, K36A: human MGLL 1-303 with cap mutations L169S, L176S and surface mutation K36A (protein)
chain: GMPEESSPRRTPQSIPYQDLPHLVNADGQYLFCRYWAPTGTPKALIFVSHGAGEHSGRYEELARMLMGLDLLVFAHDHVGHGQSEGERMVVSDFHVFVRDVLQHVDSMQKDYPGLPVFLLGHSMGGAIAILTAAERPGHFAGMVLISPLVLANPESATTFKVLAAKVLNSVLPNLSSGPIDSSVLSRNKTEVDIYNSDPLICRAGLKVCFGIQLLNAVSRVERALPKLTVPFLLLQGSADRLCDSKGAYLLMELAKSQDKTLKIYEGAYHVLHKELPEVTNSVFHEINMWVSQRTATAGTASPP
B7: mut-MGLL 9-297, L169S, L176S: truncated human MGLL 9-297 with L169S, L176S (protein, UniProt Q99685 9-297, looked up, variant L169S L176S)
chain: RTPQSIPYQDLPHLVNADGQYLFCRYWKPTGTPKALIFVSHGAGEHSGRYEELARMLMGLDLLVFAHDHVGHGQSEGERMVVSDFHVFVRDVLQHVDSMQKDYPGLPVFLLGHSMGGAIAILTAAERPGHFAGMVLISPLVLANPESATTFKVLAAKVLNSVLPNLSSGPIDSSVLSRNKTEVDIYNSDPLICRAGLKVCFGIQLLNAVSRVERALPKLTVPFLLLQGSADRLCDSKGAYLLMELAKSQDKTLKIYEGAYHVLHKELPEVTNSVFHEINMWVSQRTATA

What follows are molecules tested on MGLL (assay: Michaelis-Menten kinetics, hydrolysis of 4-methylcoumarin butyrate (4MC-B)). Settings: substrate 4MC-B; 4-5 nM MGLL, 20 mM Pipes pH 7, 150 mM NaCl, 37° C.; average of 2 or 4 assays.
Assay type: biochemical, human
Description: A small fluorescent substrate, 4-methyl coumarin butyrate (4MC-B) was used to compare the activity of the engineered mutants to the activity of wt-MGLL (hMGLL 1-303) (SEQ ID NO: 3). The catalytic efficiency (kcat/KM) for the hydrolysis of the 4MC-B was similar for wt-MGLL (hMGLL 1-303) (SEQ ID NO: 3) and all MGLL mutants tested (Table 2). A larger more aliphatic fluorescent substrate, Coumarin Arachidonate (C-A), structurally more closely related to the MGLL natural substrate, 2-AG, was used to compare the activity of wt-MGLL (hMGLL 1-303) (SEQ ID NO: 3) to TEV protease cleaved mut-MGLL (hMGLL 1-303 L169S, L176S) (SEQ ID NO: 5).
The Michaelis-Menten parameters for the hydrolysis of 4-methylcoumarin butyrate (4MC-B) and coumarin arachidonate (C-A) substrate were determined using 4-5 nM of MGLL in 20 mM Pipes pH 7 and 150 mM NaCl at 37° C. The change in fluorescence due to substrate hydrolysis was monitored using excitation/emission wavelengths of 335/440 in a Safire II instrument from Tecan. The hyperbolic rates versus substrate concentration curves for the hydrolysis of 4MC-B were fit to the Michaelis-Menten equation using Excel.

Molecule	Kcat [s⁻¹]	Km [µM]
B1	0.85	105
B2	0.783	89
B3	0.983	84
B4	1.17	84
B5	0.45	88
B6	0.85	124
B7	0.433	126
